According to patent US20260250420A1 (SICHUAN KELUN BIOTECH BIOPHARMACEUTICAL, published 2026):

T1: monkey PTK7 protein (extracellular sequence of monkey PTK7 with C-terminal 6×His tag) (monkey)
T1 chain: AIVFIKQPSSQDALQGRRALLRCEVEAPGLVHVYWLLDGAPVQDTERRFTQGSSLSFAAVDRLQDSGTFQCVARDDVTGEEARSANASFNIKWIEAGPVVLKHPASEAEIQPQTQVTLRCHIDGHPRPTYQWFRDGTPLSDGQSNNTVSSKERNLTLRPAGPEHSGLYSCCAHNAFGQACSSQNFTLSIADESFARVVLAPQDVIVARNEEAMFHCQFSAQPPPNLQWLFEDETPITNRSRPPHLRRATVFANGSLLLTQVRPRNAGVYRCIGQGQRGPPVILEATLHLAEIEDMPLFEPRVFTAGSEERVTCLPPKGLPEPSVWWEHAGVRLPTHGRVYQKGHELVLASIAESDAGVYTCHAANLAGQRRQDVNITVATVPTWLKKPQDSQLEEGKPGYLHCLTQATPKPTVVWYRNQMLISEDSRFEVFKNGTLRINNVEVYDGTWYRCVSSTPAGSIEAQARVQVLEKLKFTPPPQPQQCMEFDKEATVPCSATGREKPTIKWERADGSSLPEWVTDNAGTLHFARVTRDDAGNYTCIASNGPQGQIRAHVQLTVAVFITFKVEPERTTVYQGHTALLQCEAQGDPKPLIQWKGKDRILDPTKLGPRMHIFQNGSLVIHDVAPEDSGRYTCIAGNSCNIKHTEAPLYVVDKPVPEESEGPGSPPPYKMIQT

T2: human PTK7 protein (extracellular sequence of human PTK7 with C-terminal 6×His tag) (human, UniProt Q13308 31-704)
T2 construct: extracellular domain; Expressed transiently in HEK293 cells; also called human PTK7-His; human PTK7-His protein
T2 sequence: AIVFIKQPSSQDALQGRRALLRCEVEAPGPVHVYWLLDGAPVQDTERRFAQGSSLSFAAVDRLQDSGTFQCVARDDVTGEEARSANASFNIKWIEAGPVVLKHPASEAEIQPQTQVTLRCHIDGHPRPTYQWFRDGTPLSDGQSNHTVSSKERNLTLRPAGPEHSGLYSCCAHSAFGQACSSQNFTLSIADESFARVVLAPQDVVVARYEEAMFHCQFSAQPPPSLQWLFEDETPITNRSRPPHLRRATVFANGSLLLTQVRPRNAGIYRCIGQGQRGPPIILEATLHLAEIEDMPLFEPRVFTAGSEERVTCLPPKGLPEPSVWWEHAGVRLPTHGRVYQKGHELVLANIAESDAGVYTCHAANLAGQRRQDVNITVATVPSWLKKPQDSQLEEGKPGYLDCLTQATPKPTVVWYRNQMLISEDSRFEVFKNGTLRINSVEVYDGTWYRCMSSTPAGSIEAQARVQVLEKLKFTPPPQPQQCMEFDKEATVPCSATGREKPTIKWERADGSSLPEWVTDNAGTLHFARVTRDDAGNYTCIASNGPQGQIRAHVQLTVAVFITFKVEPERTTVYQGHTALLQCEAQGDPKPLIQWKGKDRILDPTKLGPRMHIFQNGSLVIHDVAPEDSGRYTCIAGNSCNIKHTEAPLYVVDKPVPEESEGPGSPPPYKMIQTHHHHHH


What was measured:
[1] = biological target: T1, monkey PTK7 protein (extracellular …); test: BLI (ForteBio), antibody on Protein A sensor, monkey PTK7 protein in solution
Description: (§1) The dynamic affinity of the control Hu24 and candidate antibodies 64A10HZ, 101A6HZ, 4E12HZ and 19C2HZ with human PTK7-His was detected by using ForteBio (Pall life sciences).
ELISA and ForteBio were adopted to detect binding of the anti-human PTK7 chimeric and humanized antibodies to the monkey, mouse and rat PTK7 proteins.

[2] = biological target: T1, monkey PTK7 protein (extracellular …); test: ELISA, coated monkey PTK7 protein
[3] = biological target: T2, human PTK7 protein (extracellular …); test: BLI (ForteBio), antibody on Protein A sensor, human PTK7-His 200-3.125 nM, 1:1 global fit
Description: as §1

| Kd [1] | EC50 [2] | Kd [3] | koff [3] | kon [3] | Binder |
| --- | --- | --- | --- | --- | --- |
| 134 nM | 1.23 µg/mL | 42.4 nM | 0.00566 s⁻¹ | 134000 M⁻¹ s⁻¹ | 101A6HZ (anti-human PTK7 humanized antibody) (antibody, human IgG1, kappa) heavy: not shown light: DIVMTQSPDSLAVSLGERATINCKASQDVGSAVIWYQQKPGQSPKLLIYWASTRHTGVPDRFSGSGSGTDFTLTISSLQAEDVAVYYCQQYSSYPLTFGQGTKLEIKRTVAAPSVFIFPPSDEQLKSGTASVVCLLNNFYPREAKVQWKVDNALQSGNSQESVTEQDSKDSTYSLSSTLTLSKADYEKHKVYACEVTHQGLSSPVTKSFNRGEC |
| 11.9 nM | 0.134 µg/mL | 4.96 nM | 0.00105 s⁻¹ | 211000 M⁻¹ s⁻¹ | Hu24 (PTK7 control antibody, taken from Hu24 in the Patent CN201580030255) (antibody) chain 1: QVQLVQSGPEVKKPGASVKVSCKASGYTFTDYAVHWVRQAPGKRLEWIGVISTYNDYTYNNQDFKGRVTMTRDTSASTAYMELSRLRSEDTAVYYCARGNSYFYALDYWGQGTSVTVSS chain 2: EIVLTQSPATLSLSPGERATLSCRASESVDSYGKSFMHWYQQKPGQAPRLLIYRASNLESGIPARFSGSGSGTDFTLTISSLEPEDFAVYYCQQSNEDPWTFGGGTKLEIK |
| 26.7 nM | 0.0201 µg/mL | 10.9 nM | 0.00278 s⁻¹ | 255000 M⁻¹ s⁻¹ | 64A10HZ (anti-human PTK7 humanized antibody) (antibody, human IgG1, kappa, V domains shown, Human IgG1 heavy chain constant region and human Kappa light chain constant region; expressed in CHO-S cells) VH: QVQLQESGPGLVKPSETLSLTCTVSGFSLTSYGVYWVRQPPGKGPEWLGVIWTSGNTNYNPSLKSRLTISKDNSKNQVSLKLSSVTAADTAVYYCVKHDGGNYVGVMNYWGQGTLVTVSS VL: EIVMTQSPDFQSVTPKEKVTITCRASQSISDYLHWYQQKPDQSPKLLIKYASQSISGVPSRFSGSGSGSDFTLTINSLEAEDAATYYCQNGHSFPPTFGQGTKLEIKR |
